Reference: article doi:10.1101/2020.02.01.930206 (bioRxiv, 2020)

T1: human MMS19 (subunit of the purified CTC) (human, UniProt Q96T76 1-1030)
T1 sequence: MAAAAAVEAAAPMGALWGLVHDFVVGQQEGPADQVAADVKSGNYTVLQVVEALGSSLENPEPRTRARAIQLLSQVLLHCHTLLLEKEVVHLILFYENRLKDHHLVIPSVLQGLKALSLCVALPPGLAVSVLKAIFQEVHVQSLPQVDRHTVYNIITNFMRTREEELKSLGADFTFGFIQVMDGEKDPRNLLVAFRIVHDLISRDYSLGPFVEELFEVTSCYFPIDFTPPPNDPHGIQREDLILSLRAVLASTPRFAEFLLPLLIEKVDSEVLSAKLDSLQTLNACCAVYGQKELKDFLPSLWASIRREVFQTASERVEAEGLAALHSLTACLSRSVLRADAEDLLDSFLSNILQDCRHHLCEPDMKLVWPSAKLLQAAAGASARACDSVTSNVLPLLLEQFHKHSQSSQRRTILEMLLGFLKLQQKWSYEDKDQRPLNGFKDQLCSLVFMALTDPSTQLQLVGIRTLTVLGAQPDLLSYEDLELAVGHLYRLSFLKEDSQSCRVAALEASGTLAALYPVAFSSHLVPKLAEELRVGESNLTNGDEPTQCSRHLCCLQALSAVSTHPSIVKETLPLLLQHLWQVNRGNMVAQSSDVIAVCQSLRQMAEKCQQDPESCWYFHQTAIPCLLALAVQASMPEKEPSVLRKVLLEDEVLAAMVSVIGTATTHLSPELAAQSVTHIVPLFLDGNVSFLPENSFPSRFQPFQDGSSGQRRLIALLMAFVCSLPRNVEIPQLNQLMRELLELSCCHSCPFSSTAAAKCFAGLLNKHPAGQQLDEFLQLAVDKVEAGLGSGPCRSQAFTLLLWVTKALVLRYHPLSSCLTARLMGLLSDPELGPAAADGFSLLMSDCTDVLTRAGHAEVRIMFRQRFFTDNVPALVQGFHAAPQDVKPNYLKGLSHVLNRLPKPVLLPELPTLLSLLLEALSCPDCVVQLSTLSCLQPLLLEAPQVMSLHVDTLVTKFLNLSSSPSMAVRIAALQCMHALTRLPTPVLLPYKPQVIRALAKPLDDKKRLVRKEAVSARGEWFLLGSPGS

T2: human primase small subunit PriS (human, UniProt P49642 1-420)
T2 sequence: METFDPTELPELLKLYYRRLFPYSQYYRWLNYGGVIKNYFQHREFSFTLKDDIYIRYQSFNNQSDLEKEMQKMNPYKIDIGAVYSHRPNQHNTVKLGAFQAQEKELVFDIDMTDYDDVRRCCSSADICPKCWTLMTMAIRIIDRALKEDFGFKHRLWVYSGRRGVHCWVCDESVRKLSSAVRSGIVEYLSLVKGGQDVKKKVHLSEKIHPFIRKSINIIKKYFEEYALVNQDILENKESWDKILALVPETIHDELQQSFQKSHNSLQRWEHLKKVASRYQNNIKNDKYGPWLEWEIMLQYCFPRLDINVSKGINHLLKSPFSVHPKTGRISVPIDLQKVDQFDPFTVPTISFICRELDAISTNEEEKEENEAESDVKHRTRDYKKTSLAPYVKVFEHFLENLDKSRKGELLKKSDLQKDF

T3: Drosophila melanogaster CIAO2B (Drosophila melanogaster, UniProt Q9VTC4 1-156)
T3 sequence: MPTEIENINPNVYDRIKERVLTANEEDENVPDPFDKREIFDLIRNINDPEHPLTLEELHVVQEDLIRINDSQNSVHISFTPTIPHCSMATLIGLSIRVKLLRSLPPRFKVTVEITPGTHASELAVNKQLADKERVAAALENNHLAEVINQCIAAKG

T4: Drosophila melanogaster CIAO1-CIAO2B core complex (Drosophila melanogaster, UniProt Q7K1Y4;Q9VTC4)
T4 sequence 1: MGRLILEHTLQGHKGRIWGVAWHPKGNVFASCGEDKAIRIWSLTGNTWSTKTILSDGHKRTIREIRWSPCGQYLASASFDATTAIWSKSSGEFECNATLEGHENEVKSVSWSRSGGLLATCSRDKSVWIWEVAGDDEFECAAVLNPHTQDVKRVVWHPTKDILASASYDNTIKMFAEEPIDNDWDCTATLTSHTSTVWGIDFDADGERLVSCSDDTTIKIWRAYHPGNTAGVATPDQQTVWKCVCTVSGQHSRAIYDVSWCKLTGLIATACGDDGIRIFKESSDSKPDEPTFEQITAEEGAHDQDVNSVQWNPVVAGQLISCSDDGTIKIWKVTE
T4 sequence 2: T3 sequence

B1: human primase large subunit PriL (natural protein)
chain: MEFSGRKWRKLRLAGDQRNASYPHCLQFYLQPPSENISLIEFENLAIDRVKLLKSVENLGVSYVKGTEQYQSKLESELRKLKFSYRENLEDEYEPRRRDHISHFILRLAYCQSEELRRWFIQQEMDLLRFRFSILPKDKIQDFLKDSQLQFEAISDEEKTLREQEIVASSPSLSGLKLGFESIYKIPFADALDLFRGRKVYLEDGFAYVPLKDIVAIILNEFRAKLSKALALTARSLPAVQSDERLQPLLNHLSHSYTGQDYSTQGNVGKISLDQIDLLSTKSFPPCMRQLHKALRENHHLRHGGRMQYGLFLKGIGLTLEQALQFWKQEFIKGKMDPDKFDKGYSYNIRHSFGKEGKRTDYTPFSCLKIILSNPPSQGDYHGCPFRHSDPELLKQKLQSYKISPGGISQILDLVKGTHYQVACQKYFEMIHNVDDCGFSLNHPNQFFCESQRILNGGKDIKKEPIQPETPQPKPSVQKTKDASSALASLNSSLEMDMEGLEDYFSEDS
B2: human CIAO1 (subunit of the purified CTC) (natural protein)
chain: not shown
B3: C-terminal fragment of mouse MMS19 (residues 911-1031) (domain or fragment)
chain: ELPTLLSLLLEALSCPDSVVQLSTLSCLQPLLLEAPQIMSLHVDTLVTKFLNLSSSYSMAVRIAALQCMHALTRLPTSVLLPYKSQVIRALAKPLDDKKRLVRKEAVSARGEWFLLGSPGS
B4: full-length mouse DNA2 (enzyme)
chain: MEPLDELDLLLLEEDGGAEAVPRVELLRKKADALFPETVLSRGVDNRYLVLAVETSQNERGAEEKRLHVTASQDREHEVLCILRNGWSSVPVEPGDIVHLEGDCTSEPWIIDDDFGYFILYPDMMISGTSVASSIRCLRRAVLSETFRGSDPATRQMLIGTILHEVFQKAISESFAPERLQELALQTLREVRHLKEMYRLNLSQDEILCEVEEYLPSFSKWAEDFMRKGPSSEFPQMQLSLPSDGSNRSSPCNIEVVKSLDIEESIWSPRFGLKGKIDVTVGVKIHRDCKMKYKVMPLELKTGKESNSIEHRSQVVLYTLLSQERREDPEAGWLLYLKTGQMYPVPANHLDKRELLKLRNWLAASLLHRVSRAAPGEEARLSALPQIIEEEKTCKYCSQIGNCALYSRAVEEQGDDASIPEAMLSKIQEETRHLQLAHLKYFSLWCLMLTLESQSKDNRKTHQSIWLTPASELEESGNCVGNLVRTEPVSRVCDGQYLHNFQRKNGPMPATNLMAGDRIILSGEERKLFALSKGYVKKMNKAAVTCLLDRNLSTLPATTVFRLDREERHGDISTPLGNLSKLMESTDPSKRLRELIIDFREPQFIAYLSSVLPHDAKDTVANILKGLNKPQRQAMKRVLLSKDYTLIVGMPGTGKTTTICALVRILSACGFSVLLTSYTHSAVDNILLKLAKFKVGFLRLGQSHKVHPDIQKFTEEEICRSRSIASLAHLEELYNSHPIVATTCMGINHPIFSRKTFDFCIVDEASQISQPVCLGPLFFSRRFVLVGDHQQLPPLVVNREARALGMSESLFKRLERNESAVVQLTVQYRMNRKIMSLSNKLTYAGKLECGSDRVANAVLALPNLKDARLSLQLYADYSDSPWLAGVLEPDNPVCFLNTDKVPAPEQVENGGVSNVTEARLIVFLTSTFIKAGCSPSDIGVIAPYRQQLRIISDLLARSSVGMVEVNTVDKYQGRDKSLILVSFVRSNEDGTLGELLKDWRRLNVALTRAKHKLILLGSVSSLKRFPPLGTLFDHLNAEQLILDLPSREHESLSHILGDCQRD

Assays:
[1] = biological target: T1, human MMS19 (subunit of the purified …); test: cryo-EM structure
full-length mouse DNA2 = biological target: B4; test: cryo-EM structure
[2] = biological target: T2, human primase small subunit PriS; test: cryo-EM structure
[3] = biological target: T3, Drosophila melanogaster CIAO2B; test: crystal structure
[4] = biological target: T4, Drosophila melanogaster CIAO1-CIAO2B …; test: crystal structure
[5] = biological target: full-length human CIA targeting complex (MMS19-CIAO1-CIAO2B) (human, UniProt Q96T76;O76071;Q9Y3D0); test: cryo-EM structure
Sequence of full-length human CIA targeting complex (MMS19-CIAO1-CIAO2B) (O76071 whole entry, chain 2 of 2): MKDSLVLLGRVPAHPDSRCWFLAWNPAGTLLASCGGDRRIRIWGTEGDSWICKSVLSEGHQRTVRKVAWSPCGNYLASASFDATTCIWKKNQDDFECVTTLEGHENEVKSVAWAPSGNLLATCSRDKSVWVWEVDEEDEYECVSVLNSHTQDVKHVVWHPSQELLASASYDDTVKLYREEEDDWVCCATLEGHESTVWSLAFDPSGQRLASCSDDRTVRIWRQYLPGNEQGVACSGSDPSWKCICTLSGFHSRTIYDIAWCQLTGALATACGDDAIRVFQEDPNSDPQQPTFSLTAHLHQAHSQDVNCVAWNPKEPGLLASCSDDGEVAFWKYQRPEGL
Sequence of full-length human CIA targeting complex (MMS19-CIAO1-CIAO2B) (Q9Y3D0 whole entry, chain 3 of 2): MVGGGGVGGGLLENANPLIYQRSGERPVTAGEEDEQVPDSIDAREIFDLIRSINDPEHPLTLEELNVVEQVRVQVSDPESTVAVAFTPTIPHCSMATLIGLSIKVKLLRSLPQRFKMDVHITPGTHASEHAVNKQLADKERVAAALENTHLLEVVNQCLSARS

B1: binds [1].

B2: binds (full-length mouse DNA2); binds [2].

B3: binds [3]; binds [4].

B4: binds [5].
